Measured values: PMC10110616

Molecular target: Delta-C70-Ferritin-HexaPro (DCFHP), from Expi293F cells (SARS-CoV-2 (Wuhan-1 isolate) | H. pylori) (UniProt P0DTC2)
Assay: SEC-MALS

Substance “Delta-C70-Ferritin-HexaPro (DCFHP), from Expi293F cells (from UniProt P0DTC2 14-1146; Q9ZLI1 5-167)” has a stoichiometry N of 24.
